The target in experiment [1] is T1, human FcRn (Biorbyt, cat. no. orb84388) (human, UniProt P55899 24-297; P61769 21-119, limits assumed).
T1 construct: Bought protein; Biotinylated in AlphaLISA and ELISA; also called biotinylated human FcRn
The experiment in a line: ELISA titration of biotinylated human FcRn, pH 6.0. The procedure: (§1) ELISA KD analysis of FcRn binding Z variants: A selection of FcRn binders was subjected to an analysis of the response against a dilution series of biotinylated human FcRn using ELISA at both pH 6.0 and pH 7.4 as described above. […] As a background control, all Z variants were also assayed with no target protein added. […] Data were analyzed using GraphPad Prism 5 and non-linear regression and KD values (the half maximal effective concentration) were calculated.
(§2) Periplasm samples were incubated with a serial dilution of biotinylated human FcRn.
Background: In an ELISA, binding on a coated surface is turned into a signal by an enzyme label.

Experiment [2] has as its target T1, human FcRn (Biorbyt, cat. no. orb84388). The experiment in a line: ELISA titration of biotinylated human FcRn, pH 7.4. As for the experimental part: as §1, §2

T1 sequence (P55899 24-297 limits assumed, chain 1 of 2): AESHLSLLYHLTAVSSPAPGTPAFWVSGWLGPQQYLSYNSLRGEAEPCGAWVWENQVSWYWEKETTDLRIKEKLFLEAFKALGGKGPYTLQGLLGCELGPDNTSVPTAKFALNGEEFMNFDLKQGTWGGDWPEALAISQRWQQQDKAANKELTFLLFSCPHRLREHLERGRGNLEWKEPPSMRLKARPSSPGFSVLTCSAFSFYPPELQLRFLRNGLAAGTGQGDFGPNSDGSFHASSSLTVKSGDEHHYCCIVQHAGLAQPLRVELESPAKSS
T1 sequence (P61769 21-119 limits assumed, chain 2 of 2): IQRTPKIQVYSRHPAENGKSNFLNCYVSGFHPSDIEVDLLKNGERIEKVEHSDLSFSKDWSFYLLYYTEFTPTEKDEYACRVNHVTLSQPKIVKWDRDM

B1: Z13586-ABD fusion (designed binder)
chain: AQHDEALEVDAKYAKELKDAGHEIRWLPNLTFDQRVAFIHKLRDDPSQSSELLSEAKKLNDSQAPKVDYVLAEAKVLANRELDKYGVSDYYKNLINNAKTVEGVKALIDEILAALPYVPG
notes: domain: GA3; periplasmic Z-ABD fusion
Usually Kd stands for a measure of binding affinity in units of concentration. Lower therefore signals a tighter complex. Take B1: the dissociation constant (Kd) in experiment [1] amounted to 1.2 nM; in experiment [2], 2.3 nM.

B2: Z13783-ABD fusion (designed binder)
chain: AQHDEALEVDAKYAKEIEQAGHEIRWLPNLTFDQRVAFIHKLRDDPSQSSELLSEAKKLNDSQAPKVDYVLAEAKVLANRELDKYGVSDYYKNLINNAKTVEGVKALIDEILAALPYVPG
notes: as for B1
For the molecule B2, the Kd in experiment [1] is 1.4 nM; in experiment [2] it was 2.2 nM.

Source of the values: patent publication US20160031967A1 (Affibody, published 2016).
